Laboratory results: patent US20180057604A1 (Genentech, published 2018)

T1: cyno TfR extracellular domain (analogous construct to human TfR ecd) (cynomolgus monkey, UniProt Q5RDH6 87-760 (Pongo abelii entry))
T1 construct: also called cynoTfR ecd
T1 chain: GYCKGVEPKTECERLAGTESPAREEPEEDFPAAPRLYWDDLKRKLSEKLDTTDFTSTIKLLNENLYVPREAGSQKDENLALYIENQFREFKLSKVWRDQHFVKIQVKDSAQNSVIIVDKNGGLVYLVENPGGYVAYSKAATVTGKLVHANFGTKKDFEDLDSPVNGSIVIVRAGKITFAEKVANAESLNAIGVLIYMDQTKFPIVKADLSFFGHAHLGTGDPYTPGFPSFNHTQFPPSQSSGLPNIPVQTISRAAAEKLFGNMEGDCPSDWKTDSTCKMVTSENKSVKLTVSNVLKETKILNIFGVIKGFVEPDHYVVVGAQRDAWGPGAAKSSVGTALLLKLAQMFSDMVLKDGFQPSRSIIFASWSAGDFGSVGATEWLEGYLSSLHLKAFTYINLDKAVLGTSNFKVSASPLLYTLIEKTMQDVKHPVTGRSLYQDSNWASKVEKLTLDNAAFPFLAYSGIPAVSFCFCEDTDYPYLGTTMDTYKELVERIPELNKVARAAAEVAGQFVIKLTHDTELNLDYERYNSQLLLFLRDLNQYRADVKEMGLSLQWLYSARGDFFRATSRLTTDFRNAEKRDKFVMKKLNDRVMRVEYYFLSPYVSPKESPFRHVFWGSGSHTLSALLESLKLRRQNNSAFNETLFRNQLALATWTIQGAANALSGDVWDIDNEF


How the values were obtained:
human BACE1 ECD [1] = target: T2, human BACE1 ECD; experiment: Octet, pH 7.5;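 further: antibodies captured on anti-human capture sensor tips, dissociation monitored in PBS with BSA, Kd obtained from kinetic fit to a one-to-one binding model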
T2 construct: analyte of the Octet assay (200 nM) and enzyme of the first short substrate assay; also called human BACE1 extracellular domain
T2 sequence (single chain, as listed by the source limits assumed): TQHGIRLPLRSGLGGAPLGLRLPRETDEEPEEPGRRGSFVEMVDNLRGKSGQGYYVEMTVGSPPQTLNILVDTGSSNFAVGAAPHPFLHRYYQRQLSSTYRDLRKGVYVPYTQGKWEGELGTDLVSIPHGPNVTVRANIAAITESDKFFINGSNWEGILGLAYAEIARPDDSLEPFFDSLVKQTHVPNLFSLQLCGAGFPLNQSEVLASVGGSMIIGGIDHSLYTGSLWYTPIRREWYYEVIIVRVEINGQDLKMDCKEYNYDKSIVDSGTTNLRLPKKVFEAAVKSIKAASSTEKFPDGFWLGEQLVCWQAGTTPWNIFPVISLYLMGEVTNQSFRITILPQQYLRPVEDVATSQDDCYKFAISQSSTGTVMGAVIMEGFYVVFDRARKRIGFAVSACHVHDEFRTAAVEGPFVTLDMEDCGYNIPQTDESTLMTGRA
Description: (§1) Anti-BACE1 antibodies were loaded onto anti-human capture (AHC) sensors (tips) followed by 60 seconds baseline in assay buffer. […] Tips were transferred to assay buffer for 5 minutes, 30 minutes, or 120 minutes depending on the off-rate, for off-rate measurement. Assay buffer was either PBS+0.1% BSA, pH 7.5; or PBS+0.1% BSA, pH 5.0. Kinetics were analyzed using a 1:1 binding model.

murine BACE1 ECD [2] = target: T3, murine BACE1 ECD; experiment: Octet, pH 7.5;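 further: antibodies captured on anti-human capture sensor tips, dissociation monitored in PBS with BSA, Kd obtained from kinetic fit to a one-to-one binding model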
T3 construct: analyte of the Octet assay (200 nM) and enzyme of the first short substrate assay
T3 sequence (single chain, as listed by the source limits assumed): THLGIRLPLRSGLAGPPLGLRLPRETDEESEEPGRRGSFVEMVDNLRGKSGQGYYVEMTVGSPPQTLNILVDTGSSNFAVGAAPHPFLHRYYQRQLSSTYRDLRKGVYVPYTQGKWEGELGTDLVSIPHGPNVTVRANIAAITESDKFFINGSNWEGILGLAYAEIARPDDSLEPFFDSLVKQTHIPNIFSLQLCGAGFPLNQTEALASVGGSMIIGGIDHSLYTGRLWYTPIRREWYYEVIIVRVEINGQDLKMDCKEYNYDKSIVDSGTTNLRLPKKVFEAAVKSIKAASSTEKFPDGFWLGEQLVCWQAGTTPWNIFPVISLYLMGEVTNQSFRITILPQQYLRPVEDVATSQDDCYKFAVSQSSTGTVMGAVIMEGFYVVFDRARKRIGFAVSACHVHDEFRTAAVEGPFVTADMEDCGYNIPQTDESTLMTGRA
Description: as §1

human BACE1 ECD [3] = target: T2, human BACE1 ECD; experiment: Octet, pH 5.0;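 further: antibodies captured on anti-human capture sensor tips, dissociation monitored in PBS with BSA buffer, kinetics fitted with a one-to-one binding model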
Description: as §1

murine BACE1 ECD [4] = target: T3, murine BACE1 ECD; experiment: Octet, pH 5.0;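 further: antibodies captured on anti-human capture sensor tips, dissociation monitored in PBS with BSA buffer, kinetics fitted with a one-to-one binding model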
Description: as §1

[5] = target: T4, human BACE1 (R&D Systems) (human, UniProt P56817); experiment: SPR (Biacore)
T4 construct: recombinant, commercial (R&D Systems)
T4 sequence (P56817 22-457 limits assumed): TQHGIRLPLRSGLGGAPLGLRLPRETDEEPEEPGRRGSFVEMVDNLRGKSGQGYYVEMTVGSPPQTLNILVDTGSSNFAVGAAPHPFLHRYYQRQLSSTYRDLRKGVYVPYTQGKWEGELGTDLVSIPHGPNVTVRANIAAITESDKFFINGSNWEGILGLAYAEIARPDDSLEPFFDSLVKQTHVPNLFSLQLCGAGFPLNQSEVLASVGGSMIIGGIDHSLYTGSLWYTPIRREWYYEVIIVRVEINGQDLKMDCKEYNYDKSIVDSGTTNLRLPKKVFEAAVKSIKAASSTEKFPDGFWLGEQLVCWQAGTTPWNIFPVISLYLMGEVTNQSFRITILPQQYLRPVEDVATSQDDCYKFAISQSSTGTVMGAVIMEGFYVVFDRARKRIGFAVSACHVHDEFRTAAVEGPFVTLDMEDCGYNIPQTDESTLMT
Description: Binding affinities of certain anti-BACE1 IgGs were measured by surface plasmon resonance (SRP) using a BIAcore™-T100 instrument. […] Association rates (kon) and dissociation rates (koff) were calculated using a simple one-to-one Langmuir binding model (BIAcore Evaluation Software version 3.2). The equilibrium dissociation constant (KD) was calculated as the ratio koff/kon.

[6] = target: BACE1 in primary mouse cortical neurons (mouse, UniProt P56818 46-501); experiment: cell-based or functional assay
Chain of BACE1 in primary mouse cortical neurons (P56818 46-501): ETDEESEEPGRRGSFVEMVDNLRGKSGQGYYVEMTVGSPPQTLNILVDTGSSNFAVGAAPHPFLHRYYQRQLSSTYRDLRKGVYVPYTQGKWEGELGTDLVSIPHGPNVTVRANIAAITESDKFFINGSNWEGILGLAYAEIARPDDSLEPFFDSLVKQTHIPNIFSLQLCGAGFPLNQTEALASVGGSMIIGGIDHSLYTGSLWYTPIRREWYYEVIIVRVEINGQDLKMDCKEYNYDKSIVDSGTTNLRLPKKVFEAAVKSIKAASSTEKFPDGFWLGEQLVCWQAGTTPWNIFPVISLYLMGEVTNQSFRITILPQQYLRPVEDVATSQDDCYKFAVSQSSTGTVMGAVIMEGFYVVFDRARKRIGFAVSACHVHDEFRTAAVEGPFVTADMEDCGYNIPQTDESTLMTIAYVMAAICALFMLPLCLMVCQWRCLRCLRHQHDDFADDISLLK

[7] = target: T5, human TfR extracellular domain with N-terminal His tag (human, UniProt P02786 89-760); experiment: SPR, IgG;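 further: His-tagged TfR captured via immobilized anti-His antibody on a CM5 chip, antibody injected in 3-fold dilution series by single cycle kinetics, 1:1 Langmuir or steady-state fit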
T5 construct: Biotinylated in some assays; also called huTfR; HuTfR
T5 sequence (P02786 89-760 G142S): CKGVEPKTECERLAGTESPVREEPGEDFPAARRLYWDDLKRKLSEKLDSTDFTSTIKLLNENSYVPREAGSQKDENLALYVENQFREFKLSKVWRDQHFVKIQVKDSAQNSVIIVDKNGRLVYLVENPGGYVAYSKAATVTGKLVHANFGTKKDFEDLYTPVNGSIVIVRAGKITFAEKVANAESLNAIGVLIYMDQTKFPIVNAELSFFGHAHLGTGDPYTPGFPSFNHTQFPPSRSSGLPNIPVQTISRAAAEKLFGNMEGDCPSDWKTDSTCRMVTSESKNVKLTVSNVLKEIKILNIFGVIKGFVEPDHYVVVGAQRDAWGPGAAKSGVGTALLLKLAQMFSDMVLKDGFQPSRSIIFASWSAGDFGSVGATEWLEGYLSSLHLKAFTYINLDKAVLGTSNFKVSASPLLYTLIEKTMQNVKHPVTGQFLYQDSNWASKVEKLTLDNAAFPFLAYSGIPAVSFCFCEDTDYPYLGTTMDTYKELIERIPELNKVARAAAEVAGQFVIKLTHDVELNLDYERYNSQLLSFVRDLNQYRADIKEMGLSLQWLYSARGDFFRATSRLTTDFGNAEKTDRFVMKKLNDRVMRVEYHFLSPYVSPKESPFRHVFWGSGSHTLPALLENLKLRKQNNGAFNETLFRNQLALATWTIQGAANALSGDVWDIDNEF
Description: (§2) Antibody affinities were measured using surface plasmon resonance (“SPR”) (Biacore™, GE Healthcare). Anti-His antibody (Qiagen) was coupled onto four different flow cells of a BIACORE™ CM5 sensor chip (Biacore, Inc., Piscataway, N.J.) at between 6000 and 8000 RU. Immobilization was achieved by random coupling through amino groups using a protocol provided by the manufacturer. 10×HBS-P (Biacore, Inc., Piscataway, N.J.) was diluted in water and served as the dilution and running buffer. Purified human or cyno TfR was captured, followed by a 3-fold dilution series of IgG or Fab that was injected at a flow rate of 30 ml/min using the single cycle kinetics method. Affinity constants were determined using a simple 1:1 Langmuir binding model or using a steady state model when kₒₙ or koff was beyond the detection limit. The equilibrium dissociation constant (KD) was calculated as the ratio of association rate constant (kₒₙ) and dissociation rate constant (koff).
(§3) In both cases, the SPR experiments were performed as described above.

[8] = target: T1, cyno TfR extracellular domain …; experiment: SPR, IgG;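 further: His-tagged TfR captured via immobilized anti-His antibody on a CM5 chip, antibody injected in 3-fold dilution series by single cycle kinetics, 1:1 Langmuir or steady-state fit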
Description: as §2, §3

Binder	Kd (human BACE1 ECD [1])	Kd (murine BACE1 ECD [2])	Kd (human BACE1 ECD [3])	Kd (murine BACE1 ECD [4])	Kd [5]	IC50, Abeta x-40 in mouse cortical neurons [6]	maximal % inhibition of Abeta x-40 [6]	Kd [7]	Kd [8]
6270 (antibody, V domains shown, anti-BACE1 IgG) VH: QVQLVQSGAEVKKPGSSVKVSCKASGGTFSGYGISWVRQAPGQGLEWMGNIIPGFGTANYAQKFQGRVTITADESTSTAYMELSSLRSEDTAVYYCARSGGTKYGMLDVWGQGTMVTVSS VL: EIVMTQSPATLSVSPGERATLSCRASQSVSSNLAWYQQKPGQAPRLLIYGASTRATGIPARFSGSGSGTEFTLTISSLQSEDFAVYYCQQLLLWPPRTFGGGTKVEIK	< 0.29 nM	< 0.4 nM	< 0.29 nM	< 0.41 nM	4.64 nM	4.48 nM	85%	–	–
6274 (antibody, V domains shown, anti-BACE1 IgG) VH: QVQLVQSGAEVKKPGSSVKVSCKASGGTFSGYGISWVRQAPGQGLEWMGNIIPGFGTANYAQKFQGRVTITADESTSTAYMELSSLRSEDTAVYYCARSGGTKYGMLDVWGQGTMVTVSS VL: EIVMTQSPATLSVSPGERATLSCRASQSVSSHLAWYQQKPGQAPRLLIYGASTRATGIPARFSGSGSGTEFTLTISSLQSEDFAVYYCQQLILWPPRTFGGGTKVEIK	< 0.37 nM	< 0.37 nM	0.53 nM	0.76 nM	4.18 nM	4.82 nM	85%	–	–
6275 (antibody, V domains shown, anti-BACE1 IgG) VH: QVQLVQSGAEVKKPGSSVKVSCKASGGTFRGYAISWVRQAPGQGLEWMGNIIPGFGTANYAQKFQGRVTITADESTSTAYMELSSLRSEDTAVYYCARSGGTKYGMLDVWGQGTMVTVSS VL: EIVMTQSPATLSVSPGERATLSCRASQSVSSNLAWYQQKPGQAPRLLIYGASTRATGIPARFSGSGSGTEFTLTISSLQSEDFAVYYCQQLFLWPPRTFGGGTKVEIK	< 0.48 nM	< 0.49 nM	< 0.34 nM	< 0.37 nM	2.68 nM	1.27 nM	71%	–	–
6288 (antibody, V domains shown, anti-BACE1 IgG) VH: QLQLQESGPGLVKPSETLSLTCTVSGGSTSSSSYYWGWIRQPPGKGLEWIGSIYRSGSTYYNPSLRSRVTISVDTSKNQFSLKLSSVTAADTAVYYCARVGHGISYFDLWGRGTLVTVSS VL: EIVLTQSPATLSLSPGERATLSCRASQSVSSYLAWYQQKPGQAPRLLIYDASNRATGIPARFSGSGSGTDFTLTISSLEPEDFAVYYCQQSLTWPPRTFGGGTKVEIK	< 0.21 nM	< 0.23 nM	< 0.21 nM	0.28 nM	4.79 nM	11 nM	67%	–	–

Results, then the binder that gave them:

Kd (human BACE1 ECD [1])	Kd (murine BACE1 ECD [2])	Kd (human BACE1 ECD [3])	Kd (murine BACE1 ECD [4])	Kd [5]	IC50, Abeta x-40 in mouse cortical neurons [6]	maximal % inhibition of Abeta x-40 [6]	Kd [7]	Kd [8]	Binder
< 0.45 nM	< 0.46 nM	< 0.36 nM	< 0.43 nM	2.11 nM	6.23 nM	71%	–	–	6279 (antibody, V domains shown, anti-BACE1 IgG) VH: QVQLVQSGAEVKKPGSSVKVSCKASGGTFRGYAISWVRQAPGQGLEWMGNIIPGFGTANYAQKFQGRVTITADESTSTAYMELSSLRSEDTAVYYCARSGGTKYGMLDVWGQGTMVTVSS VL: EIVMTQSPATLSVSPGERATLSCRASQSVSSNLAWYQQKPGQAPRLLIYGASTRATGIPARFSGSGSGTEFTLTISSLQSEDFAVYYCQQLLLWPPRTFGGGTKVEIK
–	–	–	–	–	–	–	0.884 nM	11 nM	hu16F6.v4 (antibody, V domains shown, IgG; HC 71 R, 78 L; also called 16F6.v4 IgG) VH: EVQLVESGPGLVKPSETLSLTCTVSGNSITSEYAWNWIRQPPGKGLEWIGYISYSGTTSYNPSLKSRVTISRDTSKNQLSLKLSSVTAADTAVYYCARYGYGNPATRYFDVWGQGTLVTVSS VL: DIQMTQSPSSLSASVGDRVTITCRASKSISKYLAWYQQKPGKTNKLLLYSGSTLQSGVPSRFSGSGSGTDYTLTISSLQPEDFATYYCQQHNEYPWTFGQGTKVEIK
